Holding throughout (experiment): fluorescence anisotropy
Common to all, as to settings: 50 mM Tris-HCl pH 8.0, 50 mM NaCl, 1 mM DTT, 25 C; 200 nM protein, 5 nM 3'-fluorescein DNA
For orientation: Polarisation of emitted light reports the rotation of a fluorescent probe.

In series [1] the target is BLM full-length (human) (UniProt P54132).
For series [2], the target named is BLM642-1290 (human) (UniProt P54132).
Series [3] deals with RecQ E. coli (Escherichia coli) (UniProt P15043).

In general, IC50 refers to the concentration needed to halve the response being measured. A lower IC50 goes with greater potency.

Sequence of BLM642-1290 (human) (P54132 642-1290): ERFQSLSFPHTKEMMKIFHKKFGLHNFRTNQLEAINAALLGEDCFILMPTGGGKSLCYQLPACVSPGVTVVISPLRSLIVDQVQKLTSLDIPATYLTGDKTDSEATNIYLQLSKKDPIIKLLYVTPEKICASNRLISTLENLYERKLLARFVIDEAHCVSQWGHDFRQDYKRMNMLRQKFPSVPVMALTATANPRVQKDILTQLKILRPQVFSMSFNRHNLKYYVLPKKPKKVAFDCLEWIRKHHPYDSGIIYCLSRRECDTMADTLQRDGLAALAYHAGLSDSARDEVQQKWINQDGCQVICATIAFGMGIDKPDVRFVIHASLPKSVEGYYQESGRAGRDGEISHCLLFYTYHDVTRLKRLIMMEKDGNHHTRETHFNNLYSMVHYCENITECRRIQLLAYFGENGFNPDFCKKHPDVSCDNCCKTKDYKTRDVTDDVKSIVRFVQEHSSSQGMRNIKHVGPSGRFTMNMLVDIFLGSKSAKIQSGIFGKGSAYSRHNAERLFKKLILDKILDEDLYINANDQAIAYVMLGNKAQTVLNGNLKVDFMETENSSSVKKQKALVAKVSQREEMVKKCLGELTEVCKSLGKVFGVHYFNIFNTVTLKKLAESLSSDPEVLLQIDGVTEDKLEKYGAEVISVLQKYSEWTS
Sequence of BLM full-length (human) (P54132 whole entry): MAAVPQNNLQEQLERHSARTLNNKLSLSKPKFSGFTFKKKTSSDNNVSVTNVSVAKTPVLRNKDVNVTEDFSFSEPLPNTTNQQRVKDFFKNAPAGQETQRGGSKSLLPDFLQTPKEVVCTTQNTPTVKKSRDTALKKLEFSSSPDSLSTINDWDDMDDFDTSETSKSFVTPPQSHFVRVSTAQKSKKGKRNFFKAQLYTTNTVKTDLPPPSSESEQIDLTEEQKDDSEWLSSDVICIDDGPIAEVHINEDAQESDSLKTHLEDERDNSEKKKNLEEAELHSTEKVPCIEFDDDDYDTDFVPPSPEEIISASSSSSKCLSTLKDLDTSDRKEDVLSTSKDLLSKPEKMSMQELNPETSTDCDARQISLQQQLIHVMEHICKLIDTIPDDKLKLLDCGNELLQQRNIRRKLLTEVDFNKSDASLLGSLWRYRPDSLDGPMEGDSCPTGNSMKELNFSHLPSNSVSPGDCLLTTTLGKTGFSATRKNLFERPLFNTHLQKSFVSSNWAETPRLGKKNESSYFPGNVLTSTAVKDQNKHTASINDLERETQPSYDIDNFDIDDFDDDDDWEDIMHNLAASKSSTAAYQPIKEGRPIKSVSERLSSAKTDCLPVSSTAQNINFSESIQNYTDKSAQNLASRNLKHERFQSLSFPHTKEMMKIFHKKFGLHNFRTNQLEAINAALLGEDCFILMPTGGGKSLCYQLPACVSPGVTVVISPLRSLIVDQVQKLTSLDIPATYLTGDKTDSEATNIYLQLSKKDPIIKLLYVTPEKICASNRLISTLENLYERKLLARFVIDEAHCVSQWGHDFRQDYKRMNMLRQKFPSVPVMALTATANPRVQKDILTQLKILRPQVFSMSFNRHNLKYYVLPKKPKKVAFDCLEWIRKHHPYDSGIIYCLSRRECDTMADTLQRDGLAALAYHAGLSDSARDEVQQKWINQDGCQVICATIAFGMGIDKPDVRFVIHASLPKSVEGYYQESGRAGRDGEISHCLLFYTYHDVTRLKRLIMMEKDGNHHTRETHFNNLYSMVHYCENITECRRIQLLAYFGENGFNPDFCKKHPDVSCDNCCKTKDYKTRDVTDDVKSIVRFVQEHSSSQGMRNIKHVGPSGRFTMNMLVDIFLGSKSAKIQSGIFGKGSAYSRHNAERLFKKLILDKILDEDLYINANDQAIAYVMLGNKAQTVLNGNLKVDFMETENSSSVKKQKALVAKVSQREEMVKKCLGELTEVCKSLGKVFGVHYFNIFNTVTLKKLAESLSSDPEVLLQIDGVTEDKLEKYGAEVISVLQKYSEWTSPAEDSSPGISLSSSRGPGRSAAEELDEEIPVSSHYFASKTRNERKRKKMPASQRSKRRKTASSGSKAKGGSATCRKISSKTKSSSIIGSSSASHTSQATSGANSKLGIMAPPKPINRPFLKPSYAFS
Sequence of RecQ E. coli (Escherichia coli) (P15043 whole entry): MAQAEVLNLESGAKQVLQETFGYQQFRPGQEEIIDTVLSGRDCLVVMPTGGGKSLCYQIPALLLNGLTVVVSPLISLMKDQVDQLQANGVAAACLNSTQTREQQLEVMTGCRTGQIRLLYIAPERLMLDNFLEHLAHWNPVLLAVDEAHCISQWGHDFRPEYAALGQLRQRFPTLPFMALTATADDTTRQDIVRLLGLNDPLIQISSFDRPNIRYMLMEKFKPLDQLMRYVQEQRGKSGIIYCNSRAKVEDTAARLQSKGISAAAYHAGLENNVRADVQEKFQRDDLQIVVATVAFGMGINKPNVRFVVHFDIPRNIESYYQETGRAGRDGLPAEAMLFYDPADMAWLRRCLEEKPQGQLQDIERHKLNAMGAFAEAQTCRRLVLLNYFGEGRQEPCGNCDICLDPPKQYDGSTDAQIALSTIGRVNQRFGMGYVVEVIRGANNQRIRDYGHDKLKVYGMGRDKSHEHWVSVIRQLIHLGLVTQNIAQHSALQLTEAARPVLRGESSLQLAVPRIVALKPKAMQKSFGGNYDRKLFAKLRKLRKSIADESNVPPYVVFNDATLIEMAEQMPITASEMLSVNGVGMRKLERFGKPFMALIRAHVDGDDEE

Consider “GCCCTGCTGCCGACCAACGAAGGT (double strand) [F-24 ds]”, for which the results for the IC50 in series [1], in series [2] and in series [3] were 6.84 µM, 8.17 µM and 44.1 µM, respectively.

The record behind these values is paper PMC4872126.
